Experiment: RP-HPLC: insulin apparent solubility / percent recovery
Details: 7 days at 2-8° C.
Outline: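 Vial samples withdrawn at each time point, centrifuged, held at 4 °C, run in duplicate by RP-HPLC. Apparent solubility = combined insulin main and desamido peak areas as percent versus standards/initial formulation; purity = main insulin peak as percent of all insulin species.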

regular insulin: mature human insulin, SEQ ID NOS: 103 and 104
Solubility of regular Insulin, % remaining of the original concentration (0.2% methylparaben + […] m-cresol, pH 6.6, NaCl 50 mM): 15.3% | Solubility of regular Insulin, % remaining of the original concentration (0.2% methylparaben + […] m-cresol, pH 6.6, NaCl 80 mM): 9.0% | Solubility of regular Insulin, % remaining of the original concentration (0.2% methylparaben + […] m-cresol, pH 6.6, NaCl 140 mM): 5.8% | Solubility of regular Insulin, % remaining of the original concentration (0.2% methylparaben + […] m-cresol, pH 6.8, NaCl 50 mM): 34.1% | Solubility of regular Insulin, % remaining of the original concentration (0.2% methylparaben + […] m-cresol, pH 6.8, NaCl 110 mM): 11.4% | Solubility of regular Insulin, % remaining of the original concentration (0.2% methylparaben + […] m-cresol, pH 7.0, NaCl 50 mM): 86.9% | Solubility of regular Insulin, % remaining of the original concentration (0.2% methylparaben + […] m-cresol, pH 7.0, NaCl 80 mM): 46.6% | Solubility of regular Insulin, % remaining of the original concentration (0.2% methylparaben + […] m-cresol, pH 7.0, NaCl 140 mM): 15.9% | Solubility of regular Insulin, % remaining of the original concentration (0.2% methylparaben + […] m-cresol, pH 7.2, NaCl 80 mM): 90.6% | Solubility of regular Insulin, % remaining of the original concentration (0.2% methylparaben + […] m-cresol, pH 7.2, NaCl 110 mM): 47.1% | Solubility of regular Insulin, % remaining of the original concentration (0.2% methylparaben + […] m-cresol, pH 7.2, NaCl 140 mM): 32.9% | Solubility of regular Insulin, % remaining of the original concentration (0.2% methylparaben + […] m-cresol, pH 7.4, NaCl 50 mM): 98.1% | Solubility of regular Insulin, % remaining of the original concentration (0.2% methylparaben + […] m-cresol, pH 7.4, NaCl 80 mM): 97.7% | Solubility of regular Insulin, % remaining of the original concentration (0.2% methylparaben + […] m-cresol, pH 7.4, NaCl 110 mM): 94.6% | Solubility of regular Insulin, % remaining of the original concentration (0.2% methylparaben + […] m-cresol, pH 7.4, NaCl 140 mM): 59.1% | Solubility of regular Insulin, % remaining of the original concentration (0.2% methylparaben + […] m-cresol, pH 7.6, NaCl 50 mM): 98.1% | Solubility of regular Insulin, % remaining of the original concentration (0.2% methylparaben + […] m-cresol, pH 7.6, NaCl 80 mM): 97.9% | Solubility of regular Insulin, % remaining of the original concentration (0.2% methylparaben + […] m-cresol, pH 7.6, NaCl 140 mM): 95.4% | Solubility of regular Insulin, % remaining of the original concentration (0.2% phenol + […] m-cresol, pH 6.6, NaCl 50 mM): 26.8% | Solubility of regular Insulin, % remaining of the original concentration (0.2% phenol + […] m-cresol, pH 6.6, NaCl 80 mM): 8.7% | Solubility of regular Insulin, % remaining of the original concentration (0.2% phenol + […] m-cresol, pH 6.6, NaCl 110 mM): 6.5% | Solubility of regular Insulin, % remaining of the original concentration (0.2% phenol + […] m-cresol, pH 6.6, NaCl 140 mM): 5.8% | Solubility of regular Insulin, % remaining of the original concentration (0.2% phenol + […] m-cresol, pH 6.8, NaCl 50 mM): 38.4% | Solubility of regular Insulin, % remaining of the original concentration (0.2% phenol + […] m-cresol, pH 6.8, NaCl 80 mM): 17.1% | Solubility of regular Insulin, % remaining of the original concentration (0.2% phenol + […] m-cresol, pH 6.8, NaCl 140 mM): 6.5% | Solubility of regular Insulin, % remaining of the original concentration (0.2% phenol + […] m-cresol, pH 7.0, NaCl 50 mM): 100.3% | Solubility of regular Insulin, % remaining of the original concentration (0.2% phenol + […] m-cresol, pH 7.0, NaCl 80 mM): 35.7% | Solubility of regular Insulin, % remaining of the original concentration (0.2% phenol + […] m-cresol, pH 7.0, NaCl 110 mM): 17.7% | Solubility of regular Insulin, % remaining of the original concentration (0.2% phenol + […] m-cresol, pH 7.0, NaCl 140 mM): 11.6% | Solubility of regular Insulin, % remaining of the original concentration (0.2% phenol + […] m-cresol, pH 7.2, NaCl 80 mM): 92.2% | Solubility of regular Insulin, % remaining of the original concentration (0.2% phenol + […] m-cresol, pH 7.2, NaCl 110 mM): 37.4% | Solubility of regular Insulin, % remaining of the original concentration (0.2% phenol + […] m-cresol, pH 7.2, NaCl 140 mM): 18.9% | Solubility of regular Insulin, % remaining of the original concentration (0.2% phenol + […] m-cresol, pH 7.4, NaCl 80 mM): 99.2% | Solubility of regular Insulin, % remaining of the original concentration (0.2% phenol + […] m-cresol, pH 7.4, NaCl 110 mM): 87.8% | Solubility of regular Insulin, % remaining of the original concentration (0.2% phenol + […] m-cresol, pH 7.4, NaCl 140 mM): 40.6% | Solubility of regular Insulin, % remaining of the original concentration (0.2% phenol + […] m-cresol, pH 7.6, NaCl 80 mM): 99.2% | Solubility of regular Insulin, % remaining of the original concentration (0.2% phenol + […] m-cresol, pH 7.6, NaCl 110 mM): 98.5% | Solubility of regular Insulin, % remaining of the original concentration (0.2% phenol + […] m-cresol, pH 7.6, NaCl 140 mM): 82.2% | Solubility of regular Insulin, % remaining of the original concentration ([…] phenol + […] m-cresol, pH 6.6, NaCl 50 mM): 31.2% | Solubility of regular Insulin, % remaining of the original concentration ([…] phenol + […] m-cresol, pH 6.6, NaCl 80 mM): 18.6% | Solubility of regular Insulin, % remaining of the original concentration ([…] phenol + […] m-cresol, pH 6.6, NaCl 140 mM): 12.9% | Solubility of regular Insulin, % remaining of the original concentration ([…] phenol + […] m-cresol, pH 6.8, NaCl 50 mM): 66.6% | Solubility of regular Insulin, % remaining of the original concentration ([…] phenol + […] m-cresol, pH 6.8, NaCl 80 mM): 24.9% | Solubility of regular Insulin, % remaining of the original concentration ([…] phenol + […] m-cresol, pH 7.0, NaCl 50 mM): 96.7% | Solubility of regular Insulin, % remaining of the original concentration ([…] phenol + […] m-cresol, pH 7.0, NaCl 80 mM): 80.8% | Solubility of regular Insulin, % remaining of the original concentration ([…] phenol + […] m-cresol, pH 7.0, NaCl 110 mM): 32.9% | Solubility of regular Insulin, % remaining of the original concentration ([…] phenol + […] m-cresol, pH 7.0, NaCl 140 mM): 17.1% | Solubility of regular Insulin, % remaining of the original concentration ([…] phenol + […] m-cresol, pH 7.2, NaCl 80 mM): 96.4% | Solubility of regular Insulin, % remaining of the original concentration ([…] phenol + […] m-cresol, pH 7.2, NaCl 110 mM): 58.7% | Solubility of regular Insulin, % remaining of the original concentration ([…] phenol + […] m-cresol, pH 7.2, NaCl 140 mM): 33.1% | Solubility of regular Insulin, % remaining of the original concentration ([…] phenol + […] m-cresol, pH 7.4, NaCl 50 mM): 96.7% | Solubility of regular Insulin, % remaining of the original concentration ([…] phenol + […] m-cresol, pH 7.4, NaCl 80 mM): 97.3% | Solubility of regular Insulin, % remaining of the original concentration ([…] phenol + […] m-cresol, pH 7.4, NaCl 110 mM): 94.2% | Solubility of regular Insulin, % remaining of the original concentration ([…] phenol + […] m-cresol, pH 7.4, NaCl 140 mM): 57.9% | Solubility of regular Insulin, % remaining of the original concentration ([…] phenol + […] m-cresol, pH 7.6, NaCl 50 mM): 97.2% | Solubility of regular Insulin, % remaining of the original concentration ([…] phenol + […] m-cresol, pH 7.6, NaCl 80 mM): 97.1% | Solubility of regular Insulin, % remaining of the original concentration ([…] phenol + […] m-cresol, pH 7.6, NaCl 110 mM): 97.1% | Solubility of regular Insulin, % remaining of the original concentration ([…] phenol + […] m-cresol, pH 7.6, NaCl 140 mM): 91.7%

Reference: patent US20130011378A1, “Stable formulations of a hyaluronan-degrading enzyme” (priority 2011, published 2013)
